{"source": "patent US20080194611A1", "about": "“Modulation of Cell Barrier Dysfunction” (priority 2005, published 2008)", "molecules": {"B1": {"name": "PA-I: purified lectin/adhesin protein of P. aeruginosa (protein, UniProt Q05097 2-122, looked up)", "PA-I galactophilic lectin": "AWKGEVLANNEAGQVTSIIYNPGDVITIVAAGWASYGPTQKWGPQGDREHPDQGLICHDAFCGALVMKIGNSGTIPVNTGLFRWVAPNNVQGAITLIYNDVPGTYGNNSGSFSVNIGKDQS"}}, "key": {"[1]": {"system": "cultured epithelial cells (MDCK, T-84, Caco-2bbe)", "test": "Epithelial permeability / TEER after purified PA-I", "type": "cell-based", "settings": "MDCK monolayers; purified protein"}, "[2]": {"test": "Cecal instillation of purified PA-I with cytotoxins in mice"}}, "data": [{"molecule": "B1", "values": [{"measurement": "TEER of epithelial cells", "setting": "[1]", "result": "decreased the TEER of epithelial cells to the same degree as P. aeruginosa"}, {"measurement": "mortality, compound alone", "setting": "[2]; cecal injection", "result": "had no effect"}, {"measurement": "mortality, combination with exotoxin A or elastase", "setting": "[2]; cecal instillation, surgically stressed and sham-operated mice", "result": "induced significant mortality"}]}]}
